Laboratory results: patent US20260049134A1 (UNIVERSITY OF FLORIDA RESEARCH FOUNDATION, published 2026)

Columns and labels:
Experiment in all cases: ELISA on coated protein
HHLA2 = biological target: T1, HHLA2
T1 construct: also called HHLA2-Fc (R&D Systems); B7-H7; not shown: Fc part and any linker
T1 chain: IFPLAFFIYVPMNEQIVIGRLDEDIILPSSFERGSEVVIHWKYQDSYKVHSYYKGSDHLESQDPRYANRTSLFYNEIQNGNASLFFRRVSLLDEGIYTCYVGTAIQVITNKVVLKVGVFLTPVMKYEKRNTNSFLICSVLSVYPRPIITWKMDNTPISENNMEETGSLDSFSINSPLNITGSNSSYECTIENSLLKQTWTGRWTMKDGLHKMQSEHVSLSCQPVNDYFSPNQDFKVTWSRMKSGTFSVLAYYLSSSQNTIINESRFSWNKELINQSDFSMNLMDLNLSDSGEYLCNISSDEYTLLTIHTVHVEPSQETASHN
Protocol: (§1) Recombinant purified ECDs (50-150 ng) of each putative target protein were coated, incubated with 150 ng of the indicated primary antibody, and binding was detected using a peroxidase-conjugated anti-human Fab secondary antibody. Heatmap represents averages of technical triplicates. (8B) Target validation via siRNA knockdown. H929 cells were transfected with siRNA pools targeting the putative antibody targets ICAM1, CADM1, and PTPRG. Cells were then subjected to cognate IgG binding analysis via flow cytometry. (NT, non-targeting siRNA).
(§2) ELISA ELISA was conducted as described previously. Briefly, 50-150 ng of antigen was coated overnight in half-area 96-well plates at 4° C., blocked with 3% BSA at 37° C. for 1 h, and 150 ng of chimeric rabbit/human IgG1 was added, incubating for 2 h at 37° C. […] After incubating at 37° C. for 15 min-1 h (depending on intensity of controls), data were acquired using a SpectraMax M5 plate reader (Molecular Devices).

IGSF11 = biological target: T2, IGSF11
T2 construct: also called IGSF11-Fc (R&D Systems)
T2 chain: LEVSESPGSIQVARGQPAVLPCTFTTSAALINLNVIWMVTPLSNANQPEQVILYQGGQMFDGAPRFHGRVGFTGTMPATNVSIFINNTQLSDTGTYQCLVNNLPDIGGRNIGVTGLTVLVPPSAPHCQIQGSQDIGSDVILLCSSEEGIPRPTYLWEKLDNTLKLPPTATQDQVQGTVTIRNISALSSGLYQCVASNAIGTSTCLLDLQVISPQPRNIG
Protocol: as §1, §2

DCC = biological target: T3, DCC
T3 construct: also called DCC-His (R&D Systems)
T3 chain: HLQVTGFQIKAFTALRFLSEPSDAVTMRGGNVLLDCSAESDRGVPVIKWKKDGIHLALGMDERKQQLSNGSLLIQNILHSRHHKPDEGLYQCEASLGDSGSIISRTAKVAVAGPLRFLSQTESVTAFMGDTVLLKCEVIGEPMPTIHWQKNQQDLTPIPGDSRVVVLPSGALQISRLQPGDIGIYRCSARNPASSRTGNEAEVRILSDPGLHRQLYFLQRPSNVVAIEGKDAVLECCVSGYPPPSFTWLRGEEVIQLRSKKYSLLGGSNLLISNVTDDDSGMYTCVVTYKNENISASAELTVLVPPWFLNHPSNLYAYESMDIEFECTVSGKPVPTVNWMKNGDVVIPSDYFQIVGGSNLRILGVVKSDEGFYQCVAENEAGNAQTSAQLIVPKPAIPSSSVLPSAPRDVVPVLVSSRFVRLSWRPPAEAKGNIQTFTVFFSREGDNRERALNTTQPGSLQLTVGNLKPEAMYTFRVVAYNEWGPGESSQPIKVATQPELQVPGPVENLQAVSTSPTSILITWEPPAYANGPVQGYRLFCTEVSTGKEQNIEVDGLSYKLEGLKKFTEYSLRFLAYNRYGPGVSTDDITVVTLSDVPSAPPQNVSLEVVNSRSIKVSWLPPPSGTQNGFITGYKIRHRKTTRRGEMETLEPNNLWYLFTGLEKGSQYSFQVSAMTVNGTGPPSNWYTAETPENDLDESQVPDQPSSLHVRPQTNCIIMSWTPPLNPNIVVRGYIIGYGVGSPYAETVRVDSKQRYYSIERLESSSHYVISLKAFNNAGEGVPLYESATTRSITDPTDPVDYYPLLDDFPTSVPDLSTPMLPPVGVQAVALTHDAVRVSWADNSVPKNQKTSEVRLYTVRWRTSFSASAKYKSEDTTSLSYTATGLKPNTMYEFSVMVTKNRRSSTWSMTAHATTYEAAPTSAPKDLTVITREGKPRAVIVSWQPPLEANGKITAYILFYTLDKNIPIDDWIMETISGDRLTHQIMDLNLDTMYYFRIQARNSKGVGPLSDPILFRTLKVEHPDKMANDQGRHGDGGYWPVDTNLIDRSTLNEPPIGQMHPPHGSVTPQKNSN
Protocol: as §1, §2

ICAM1-Fc (R&D Systems) = biological target: T4, ICAM1-Fc (R&D Systems) (human, UniProt P05362 28-480)
T4 construct: Bought; also called ICAM-1/CD54; not shown: Fc of the bought fusion protein
Protocol: as §1, §2

PTP4A3 = biological target: T5, PTP4A3
T5 construct: also called His-PTP4A3 (R&D Systems)
Protocol: as §1, §2

SELL = biological target: T6, SELL
T6 construct: also called SELL-Fc-His (R&D Systems); L-Selectin
T6 chain: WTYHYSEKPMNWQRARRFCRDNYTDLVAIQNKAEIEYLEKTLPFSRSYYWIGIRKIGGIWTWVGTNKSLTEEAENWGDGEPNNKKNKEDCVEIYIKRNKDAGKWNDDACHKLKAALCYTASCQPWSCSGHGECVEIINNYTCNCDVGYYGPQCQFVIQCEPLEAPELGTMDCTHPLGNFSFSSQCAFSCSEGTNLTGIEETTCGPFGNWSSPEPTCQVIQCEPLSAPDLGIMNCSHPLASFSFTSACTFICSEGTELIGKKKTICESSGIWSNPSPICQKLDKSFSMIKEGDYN
Protocol: as §1, §2

T5 sequence (chain, as listed by the source limits assumed): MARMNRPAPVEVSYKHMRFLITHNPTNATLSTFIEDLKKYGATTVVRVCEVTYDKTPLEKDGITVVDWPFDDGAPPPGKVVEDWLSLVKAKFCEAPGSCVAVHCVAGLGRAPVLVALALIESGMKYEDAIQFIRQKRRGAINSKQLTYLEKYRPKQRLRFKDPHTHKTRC
T4 sequence (P05362 28-480): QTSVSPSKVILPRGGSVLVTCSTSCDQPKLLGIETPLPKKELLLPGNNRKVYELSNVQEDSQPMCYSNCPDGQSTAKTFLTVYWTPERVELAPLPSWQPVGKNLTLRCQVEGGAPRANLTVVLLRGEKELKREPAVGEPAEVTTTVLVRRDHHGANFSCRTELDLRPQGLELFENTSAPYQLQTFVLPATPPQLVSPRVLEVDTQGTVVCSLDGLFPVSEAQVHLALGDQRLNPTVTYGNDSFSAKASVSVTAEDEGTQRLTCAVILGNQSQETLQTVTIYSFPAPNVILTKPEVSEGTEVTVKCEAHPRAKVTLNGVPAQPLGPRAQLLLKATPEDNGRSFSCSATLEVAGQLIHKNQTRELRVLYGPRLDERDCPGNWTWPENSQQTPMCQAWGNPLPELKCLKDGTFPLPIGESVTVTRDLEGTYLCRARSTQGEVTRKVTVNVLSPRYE

B1: HW-8 chimeric rabbit-human IgG1 LA/LA/PG (antibody, V domains shown)
VH: QSLEESGGRLVTPGTPLTLTCTVSGFSLSSYAMSWVRQAPGKGLEWIGAISTGGSTTYASWAKGRFTISKTSSTTVDLKMTSLTTEDTATYFCVRHFRLWGPGTLVTISS
VL: QVLTQTPSSVSAAVGGTVTIKCQASQSIGSALAWFQQKPGQRPKLLIYRASNLASGVPSRFKGSGSGTEFALTISGVQREDAATYYCLGGAAAVWAFGAGTNVEIKR
notes: Fc-silenced (L234A/L235A/P329G) IgG1, kappa; Alexa Fluor 647-labeled in single-step flow cytometry; Cluster C-45
B1: no binding (tested: 150 ng IgG1 per well) (HHLA2); no binding (tested: 150 ng IgG1 per well) (IGSF11); no binding (tested: 150 ng IgG1 per well) (DCC). B1: no binding (tested: 150 ng IgG1 per well) (ICAM1-Fc (R&D Systems)); no binding (tested: 150 ng IgG1 per well) (PTP4A3); no binding (tested: 150 ng IgG1 per well) (SELL).

B2: HW-42 chimeric rabbit-human IgG1 LA/LA/PG (antibody, V domains shown)
VH: QSVKESEGGLFKPADTLTLTCTVSGFSLSSNEISWVRQAPGEGLEYIGIIDTGGRAYYAVWARSRSTITRNTNLNTVTLKMTSLTAADTATYFCARGGVDTEWYAFSSWGPGTLVTVPS
VL: SFVLTQPASVQVNLGQTVSLTCTADTLSRRYASWYQQKPGQAPVLLIFRDTSRPSGVPDRFSGSSSGDTATLTISGAQAGDEADYYCATSDGSGSNYQYVFGGGTQLTVTG
notes: Fc-silenced (L234A/L235A/P329G) IgG1, lambda; Alexa Fluor 647-labeled in single-step flow cytometry; Cluster C-1
B2: no binding (tested: 150 ng IgG1 per well) (HHLA2); no binding (tested: 150 ng IgG1 per well) (IGSF11); no binding (tested: 150 ng IgG1 per well) (DCC). B2: no binding (tested: 150 ng IgG1 per well) (PTP4A3); no binding (tested: 150 ng IgG1 per well) (SELL).

B3: HW-17 chimeric rabbit-human IgG1 LA/LA/PG (antibody, V domains shown)
VH: QSLGESRGRLVTPDETLTLTCTVSGIDLSSNAMSWVRQAPGEGLEWIGTINTGGRAYYASWAKGRFTISRTSTTVDLKMTSLTTEDTATYFCARERYSDGRAYDIWGPGTLVTISS
VL: SFVLTQPASVQVNLGQTVSLTCTADTLSRRYASWYQQKPGQAPVLLIYTDSNRPSGIPDRFSGSSSGNTATLTISGAQAGDEADYYCATDDGSGSIYQYVFGGGTQLTVTG
notes: as for B2
B3: no binding (tested: 150 ng IgG1 per well) (HHLA2); no binding (tested: 150 ng IgG1 per well) (IGSF11); no binding (tested: 150 ng IgG1 per well) (DCC). B3: no binding (tested: 150 ng IgG1 per well) (ICAM1-Fc (R&D Systems)); no binding (tested: 150 ng IgG1 per well) (PTP4A3); no binding (tested: 150 ng IgG1 per well) (SELL).

B4: HW-113 chimeric rabbit-human IgG1 LA/LA/PG (antibody, V domains shown)
VH: QKQLVESGGGLVQPGGSLTLTCTVSGFSLNKYYMGWFRQAPGKGLEWIGVISRSGDTYYSSWAKGRFTISKASTTVDLRITSPTTEDTATYFCARDASSPGFHGDRLDLWGQGTLVTVSS
VL: SFVLTQPASVQVNLGQTVSLTCTADTLSRSYASWYQQKPGQAPVLLIYRDTSRPSGVPDRFSGSSSGNTATLTISGAQAGDEADYYCATSDGIGSNYLWVFGGGTQLTVTG
notes: Fc-silenced (L234A/L235A/P329G) IgG1, lambda; Alexa Fluor 647-labeled in single-step flow cytometry
B4: no binding (tested: 150 ng IgG1 per well) (HHLA2); no binding (tested: 150 ng IgG1 per well) (IGSF11); no binding (tested: 150 ng IgG1 per well) (DCC). B4: no binding (tested: 150 ng IgG1 per well) (PTP4A3); no binding (tested: 150 ng IgG1 per well) (SELL).

B5: HW-1 chimeric rabbit-human IgG1 LA/LA/PG (antibody, V domains shown)
VH: QSLEESGGGLFKPTDTLTLTCTASGFSLGSSYAISWVRQAPGKELEWIGTIDSGRAYYARWAKSRSTITRNTNENTVTLKMTSLTAADTATYFCARDLIPTYSQDIWGPGTLVTISS
VL: SFVLTQPASVQVNLGQTVSLTCTADTLSRRYASWYQQKPGQAPVLLIYRDTSRPSGVPDRFSGSSSGNTATLTISGAQAGDEADYYCATSDGSGNSYQYVFGGGTQLTVTS
notes: Fc-silenced (L234A/L235A/P329G) IgG1, lambda; Alexa Fluor 647-labeled in single-step flow cytometry; Prototype of cluster C-1
B5: no binding (tested: 150 ng IgG1 per well) (HHLA2); no binding (tested: 150 ng IgG1 per well) (IGSF11); no binding (tested: 150 ng IgG1 per well) (DCC). B5: no binding (tested: 150 ng IgG1 per well) (ICAM1-Fc (R&D Systems)); no binding (tested: 150 ng IgG1 per well) (PTP4A3); no binding (tested: 150 ng IgG1 per well) (SELL).

B6: HW-25 chimeric rabbit-human IgG1 LA/LA/PG (antibody, V domains shown)
VH: QSLEESGGRLVTPGTPLTLTCTVSGFSLSSYAMGWVRQAPGKGLEWIGIIDSRGSTYYATWAKGRFTISKTSTTVDLKITSPTTEDTATYFCAREDSYYYDSFNLWGPGTLVTVSS
VL: SFVLTQPASVQVNLGQTVSLTCTADTLSRRYASWYQQKPGQAPVLLIYRDTSRPSGVPDRFSGSSSGNTATLTISGAQAGDEADYYCATSDGSGSSYQCVFGGGTQLTVTG
notes: as for B2
B6: no binding (tested: 150 ng IgG1 per well) (HHLA2); no binding (tested: 150 ng IgG1 per well) (IGSF11); no binding (tested: 150 ng IgG1 per well) (DCC). B6: no binding (tested: 150 ng IgG1 per well) (PTP4A3); no binding (tested: 150 ng IgG1 per well) (SELL).

B7: HW-70 chimeric rabbit-human IgG1 LA/LA/PG (antibody, V domains shown)
VH: QSLEESGGRLVTPGTPLTLTCTVSGFSLSSNAMSWVRQAPGKGLEWIGTIDGYGYTYYASWAKGRFTVSKTSTTVDLKITSPTTEDTATYFCAREIYLGSNFWGPGTLVTISS
VL: SFVLTQPASVQVNLGQTVSLTCTADTLSRRYASWYQQKPGQAPVLLIYRDTSRPSGVPDRFSGSSSGNTATLTISGAQAGDEADYYCATADGSGSSYQFVFGGGTQLTVTG
notes: as for B2
B7: no binding (tested: 150 ng IgG1 per well) (HHLA2); no binding (tested: 150 ng IgG1 per well) (IGSF11); no binding (tested: 150 ng IgG1 per well) (DCC). B7: no binding (tested: 150 ng IgG1 per well) (PTP4A3); no binding (tested: 150 ng IgG1 per well) (SELL).
